These results are taken from article PMC8586017, “CENP-V is required for proper chromosome segregation through interaction with spindle microtubules in mouse oocytes” (Nature Communications, 2021).

As usually defined, the Kd is the concentration at which binding is half-saturated.

The test deals with taxol-stabilised ATTO 647N-labelled microtubules (UniProt P02550 1-451, ATTO 647N label (which chain and residues not stated) | ATTO 647N label (which chain and residues not stated)). Briefly: TIRF microscopy, saturation binding curve; CENP-V-eGFP titrated onto surface-bound taxol-stabilised ATTO 647N-labelled microtubules; BRB80 (80 mM PIPES pH 6.8, 1 mM MgCl2, 1 mM EGTA) with 10 µM taxol, casein, DTT; 25 °C, 15 m equilibration; GFP intensity per micrometer of at least 100 microtubules per condition; Hill (cooperative) fit. The conditions noted are these: both partners purified.

B1: His6-CENP-V-eGFP (natural protein, UniProt Q9CXS4 1-252, looked up)
chain: MRRTRSAVATGPREQRRSGATGGLSGGESRAQRSRSRTRAGAGGGGGAVGPQPSAKPRPKPPPRAQEAAAEEPPPAVTPAASVSALDLGEQRERWETFQKRQRLSFEGAAKLLLDTFEYQGLVKHTGGCHCGAVRFEVWASADLHIFDCNCSICKKKQNRHFIVPASRFKLLKGAESITTYTFNTHKAQHTFCKRCGVQSFYTPRSNPGGFGIAPHCLDEGTVRSVVTEEFNGSDWERAMKEHKTIKNMSKE
notes: CENP-V (centromere protein V); also called CENP-V-GFP; recombinant CENP-V-eGFP
Turning to B1, the affinity, expressed as Kd, was 53.2 ± 4.5 nM.
